Values quoted from earlier work in publication PMC8193598.
Values joined by “and” are separate entries in the source; they are usually repeats but may differ in a detail not shown here. Equal entries are not always repeated. Where two headings read alike, the source gives them in different places.

Experiments:
[1] = target: spike protein (SARS-CoV-2) (UniProt P0DTC2)
[2] = target: spike protein (SARS-CoV-2) (UniProt P0DTC2); remark: listed apart in the source
[3] = target: SARS-CoV-2 S1 CendR peptide CendR peptide (SARS-CoV-2) (UniProt P0DTC2)

KREMEN1, sequence (Q96MU8 20-392): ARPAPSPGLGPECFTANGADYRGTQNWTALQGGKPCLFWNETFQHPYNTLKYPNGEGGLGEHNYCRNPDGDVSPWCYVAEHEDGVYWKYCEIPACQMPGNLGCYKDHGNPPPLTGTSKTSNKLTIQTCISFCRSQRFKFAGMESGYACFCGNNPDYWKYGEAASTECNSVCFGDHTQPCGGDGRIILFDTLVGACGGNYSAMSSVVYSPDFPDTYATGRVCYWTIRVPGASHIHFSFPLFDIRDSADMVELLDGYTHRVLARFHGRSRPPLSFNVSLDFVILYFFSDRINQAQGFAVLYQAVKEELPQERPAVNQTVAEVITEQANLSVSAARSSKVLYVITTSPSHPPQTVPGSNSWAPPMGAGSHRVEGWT
ASGR1, sequence (P07306 whole entry): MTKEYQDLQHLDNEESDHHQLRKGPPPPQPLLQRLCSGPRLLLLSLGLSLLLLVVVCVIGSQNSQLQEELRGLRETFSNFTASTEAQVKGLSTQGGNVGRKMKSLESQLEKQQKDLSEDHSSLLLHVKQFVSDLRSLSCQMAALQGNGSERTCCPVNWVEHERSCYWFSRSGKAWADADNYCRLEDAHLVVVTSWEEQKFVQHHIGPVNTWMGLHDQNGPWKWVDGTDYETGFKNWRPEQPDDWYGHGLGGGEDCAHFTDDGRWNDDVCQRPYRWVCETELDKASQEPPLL

In the case of ASGR1 (from UniProt P07306), the Kd [1] is listed as 0.0948 µM.

For KREMEN1 (from UniProt Q96MU8), the Kd [2] is given as 0.0193 µM.

For “neuropilin-1 coagulation factor domain (from UniProt O14786)”, the Kd [3] is listed as 20.3 µM and 13 µM.
